According to the supplement of paper PMC9112550, “Optimization of the antimicrobial peptide Bac7 by deep mutational scanning” (BMC Biology, 2022):

Test system: Escherichia coli TOP10
Assay: shrunken log2 fold change of peptide-encoding DNA abundance (4.5 h post-induction vs induction); higher = less antimicrobial activity (less host growth inhibition)
Settings: time post-induction: 4.5 h; library: site-saturation at positions 5, 18, 19, 20
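Also: peptides expressed intracellularly from a pBAD plasmid library in pooled LB shake-flask culture, induced with 0.3% L-arabinose, DNA abundance read by NGS, three biological replicates, DESeq2 with apeglm shrinkage.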

Row | Sequence | shrunken log2 fold change
1 | RRIRERPPRLPRPRPRPSIYPRP | -1
2 | RRIRARPPRLPRPRPRPAGAPRP | 1.16
3 | RRIRNRPPRLPRPRPRPETGPRP | 2.57
4 | RRIRIRPPRLPRPRPRPIMRPRP | 0.139
5 | RRIRDRPPRLPRPRPRPKPDPRP | 0.306
6 | RRIRQRPPRLPRPRPRPPMAPRP | 0.0822
7 | RRIRKRPPRLPRPRPRPKFSPRP | 0.0774
8 | RRIRQRPPRLPRPRPRPLVFPRP | -0.0658
9 | RRIRNRPPRLPRPRPRPMMHPRP | -0.25
10 | RRIRHRPPRLPRPRPRPNHMPRP | 0.124
11 | RRIRMRPPRLPRPRPRPCGHPRP | 0.0237
12 | RRIRSRPPRLPRPRPRPDYDPRP | -0.0947
13 | RRIRVRPPRLPRPRPRPGRMPRP | 0.172
14 | RRIRLRPPRLPRPRPRPTVNPRP | -0.119
15 | RRIRKRPPRLPRPRPRPQNYPRP | -0.196
16 | RRIRRRPPRLPRPRPRPGLQPRP | -0.0644
17 | RRIRWRPPRLPRPRPRPTVAPRP | 0.662
18 | RRIRIRPPRLPRPRPRPWKWPRP | -0.00992
19 | RRIRIRPPRLPRPRPRPNDWPRP | 0.0555
20 | RRIRKRPPRLPRPRPRPFFEPRP | 0.428
21 | RRIRTRPPRLPRPRPRPYKCPRP | -0.372
22 | RRIRARPPRLPRPRPRPEYRPRP | 0.0382
23 | RRIRLRPPRLPRPRPRPLNMPRP | -0.461
24 | RRIRIRPPRLPRPRPRPWNLPRP | 0.0133
25 | RRIRIRPPRLPRPRPRPPNNPRP | -0.637

Row | Sequence | shrunken log2 fold change
26 | RRIRIRPPRLPRPRPRPACIPRP | -0.69
27 | RRIRIRPPRLPRPRPRPQWGPRP | -0.000367
28 | RRIRQRPPRLPRPRPRPCQKPRP | 0.0369
29 | RRIRARPPRLPRPRPRPLEGPRP | 0.564
30 | RRIRDRPPRLPRPRPRPQLSPRP | 0.103
31 | RRIRNRPPRLPRPRPRPDPMPRP | -0.177
32 | RRIRFRPPRLPRPRPRPRLKPRP | 0.0563
33 | RRIRNRPPRLPRPRPRPYVRPRP | -0.451
34 | RRIRTRPPRLPRPRPRPFGDPRP | 0.0755
35 | RRIRRRPPRLPRPRPRPKYMPRP | -0.444
36 | RRIRMRPPRLPRPRPRPHRHPRP | -0.344
37 | RRIRVRPPRLPRPRPRPFYTPRP | 0.508
38 | RRIRCRPPRLPRPRPRPGLIPRP | 4.01e-05
39 | RRIRQRPPRLPRPRPRPFWWPRP | 0.0308
40 | RRIRLRPPRLPRPRPRPMQMPRP | -0.11
41 | RRIRQRPPRLPRPRPRPSPAPRP | 0.611
42 | RRIRHRPPRLPRPRPRPFKHPRP | -0.454
43 | RRIRSRPPRLPRPRPRPWFCPRP | -0.439
44 | RRIRYRPPRLPRPRPRPRRKPRP | 0.0824
45 | RRIRYRPPRLPRPRPRPPHSPRP | -0.699
46 | RRIRPRPPRLPRPRPRPAARPRP | 0.727
47 | RRIRCRPPRLPRPRPRPANRPRP | 0.127
48 | RRIRARPPRLPRPRPRPHCCPRP | 0.134
49 | RRIRERPPRLPRPRPRPDEDPRP | -0.209
50 | RRIRWRPPRLPRPRPRPPISPRP | 0.172

Row | Sequence | shrunken log2 fold change
51 | RRIRPRPPRLPRPRPRPTAFPRP | 0.238
52 | RRIRLRPPRLPRPRPRPRNFPRP | -0.112
53 | RRIRQRPPRLPRPRPRPWREPRP | -0.0373
54 | RRIRFRPPRLPRPRPRPLMGPRP | -0.18
55 | RRIRTRPPRLPRPRPRPYIDPRP | -0.132
56 | RRIRGRPPRLPRPRPRPHMDPRP | 0.0325
57 | RRIRARPPRLPRPRPRPNRYPRP | -0.191
58 | RRIRSRPPRLPRPRPRPRYNPRP | -0.479
59 | RRIRARPPRLPRPRPRPFWNPRP | 0.127
60 | RRIRRRPPRLPRPRPRPKNLPRP | -0.104
61 | RRIRVRPPRLPRPRPRPIEFPRP | 0.0379
62 | RRIRFRPPRLPRPRPRPMCRPRP | -0.218
63 | RRIRKRPPRLPRPRPRPWCQPRP | -0.0158
64 | RRIRFRPPRLPRPRPRPDWYPRP | -0.0899
65 | RRIRRRPPRLPRPRPRPNINPRP | -0.156
66 | RRIRERPPRLPRPRPRPRILPRP | -0.202
67 | RRIRPRPPRLPRPRPRPEYSPRP | -0.117
68 | RRIRERPPRLPRPRPRPGHPPRP | 0.143
69 | RRIRRRPPRLPRPRPRPRQSPRP | 0.243
70 | RRIRLRPPRLPRPRPRPFRNPRP | -0.0827
71 | RRIRVRPPRLPRPRPRPVVGPRP | 0.126
72 | RRIRWRPPRLPRPRPRPPSRPRP | 0.314
73 | RRIRCRPPRLPRPRPRPGASPRP | 0.519
74 | RRIRIRPPRLPRPRPRPFSNPRP | -0.28
75 | RRIRDRPPRLPRPRPRPGGRPRP | 0.569

Row | Sequence | shrunken log2 fold change
76 | RRIRSRPPRLPRPRPRPGDDPRP | 0.0869
77 | RRIRGRPPRLPRPRPRPEMWPRP | 1.76
78 | RRIRRRPPRLPRPRPRPGRKPRP | 0.332
79 | RRIRWRPPRLPRPRPRPKFVPRP | 0.295
80 | RRIRERPPRLPRPRPRPYYAPRP | -0.72
81 | RRIRMRPPRLPRPRPRPALDPRP | 0.94
82 | RRIRHRPPRLPRPRPRPSYNPRP | -0.86
83 | RRIRQRPPRLPRPRPRPHKMPRP | 0.246
84 | RRIRARPPRLPRPRPRPNLQPRP | 0.177
85 | RRIRIRPPRLPRPRPRPDENPRP | 0.108
86 | RRIRARPPRLPRPRPRPNEVPRP | 0.0341
87 | RRIRFRPPRLPRPRPRPPSDPRP | 0.201
88 | RRIRIRPPRLPRPRPRPVFMPRP | -0.275
89 | RRIRRRPPRLPRPRPRPESDPRP | 0.6
90 | RRIRERPPRLPRPRPRPVTVPRP | -0.0984
91 | RRIRDRPPRLPRPRPRPMQRPRP | -0.00663
92 | RRIRDRPPRLPRPRPRPTHIPRP | -0.656
93 | RRIRHRPPRLPRPRPRPYQIPRP | -0.484
94 | RRIRGRPPRLPRPRPRPPEEPRP | 1.5
95 | RRIRWRPPRLPRPRPRPVIVPRP | -0.0785
96 | RRIRLRPPRLPRPRPRPGWRPRP | 0.317
97 | RRIRGRPPRLPRPRPRPVCGPRP | 0.866
98 | RRIRPRPPRLPRPRPRPKKQPRP | -0.15
99 | RRIRNRPPRLPRPRPRPTFIPRP | -0.279
100 | RRIRNRPPRLPRPRPRPHRMPRP | -0.0233

Row | Sequence | shrunken log2 fold change
101 | RRIRPRPPRLPRPRPRPPCKPRP | 0.19
102 | RRIRYRPPRLPRPRPRPNGIPRP | -0.02
103 | RRIRDRPPRLPRPRPRPVRIPRP | 0.18
104 | RRIRMRPPRLPRPRPRPDCQPRP | 1.37
105 | RRIRMRPPRLPRPRPRPHRPPRP | 0.066
106 | RRIRRRPPRLPRPRPRPMNDPRP | 0.338
107 | RRIRRRPPRLPRPRPRPQREPRP | 0.153
108 | RRIRPRPPRLPRPRPRPKYLPRP | -0.0768
109 | RRIRHRPPRLPRPRPRPAIVPRP | -0.167
110 | RRIRIRPPRLPRPRPRPCYSPRP | -0.0549
111 | RRIRLRPPRLPRPRPRPFTNPRP | 0.0104
112 | RRIRLRPPRLPRPRPRPHWHPRP | -0.249
113 | RRIRKRPPRLPRPRPRPPDNPRP | 0.0807
114 | RRIRWRPPRLPRPRPRPSFLPRP | -0.351
115 | RRIRTRPPRLPRPRPRPIFFPRP | 0.0107
116 | RRIRERPPRLPRPRPRPLCQPRP | 0.00385
117 | RRIRDRPPRLPRPRPRPNRFPRP | -0.00648
118 | RRIRMRPPRLPRPRPRPMAEPRP | 2.79
119 | RRIRQRPPRLPRPRPRPEKQPRP | -0.267
120 | RRIRPRPPRLPRPRPRPPEMPRP | 0.426
121 | RRIRFRPPRLPRPRPRPLPLPRP | 0.0222
122 | RRIRARPPRLPRPRPRPWVHPRP | -0.162
123 | RRIRARPPRLPRPRPRPYKPPRP | -0.304
124 | RRIRDRPPRLPRPRPRPHHYPRP | -0.0954
125 | RRIRDRPPRLPRPRPRPTESPRP | -0.00177
